Experimental data: PMC9279153, “Structure of the Dicer-2–R2D2 heterodimer bound to a small RNA duplex”

What was measured:
[1] = target: T1, Dicer-2;R2D2 (Drosophila;Drosophila, UniProt A1ZAW0;Q9VLW8 1-1722;1-311, |); test: photocrosslinking; crosslinks to R2D2; Crosslinking: 20 nM siRNA, 40 nM Dicer-2-R2D2, 30 min, >300 nm UV 60 s, buffer not given; structure: 30 mM Hepes-KOH pH 7.4, 100 mM potassium acetate, 2 mM magnesium acetate, 1 mM DTT, 0.02% glycerol, protein:siRNA 1:2 mixed at room temperature; settings: protein: recombinant;recombinant; tags: 8xHis (structure prep);3xFlag; copies: 1;1; 3' overhang 2 nt on strand 2; U-U mismatch at nt 1 of strand 1
T1 sequence (A1ZAW0 whole entry, chain 1 of 2): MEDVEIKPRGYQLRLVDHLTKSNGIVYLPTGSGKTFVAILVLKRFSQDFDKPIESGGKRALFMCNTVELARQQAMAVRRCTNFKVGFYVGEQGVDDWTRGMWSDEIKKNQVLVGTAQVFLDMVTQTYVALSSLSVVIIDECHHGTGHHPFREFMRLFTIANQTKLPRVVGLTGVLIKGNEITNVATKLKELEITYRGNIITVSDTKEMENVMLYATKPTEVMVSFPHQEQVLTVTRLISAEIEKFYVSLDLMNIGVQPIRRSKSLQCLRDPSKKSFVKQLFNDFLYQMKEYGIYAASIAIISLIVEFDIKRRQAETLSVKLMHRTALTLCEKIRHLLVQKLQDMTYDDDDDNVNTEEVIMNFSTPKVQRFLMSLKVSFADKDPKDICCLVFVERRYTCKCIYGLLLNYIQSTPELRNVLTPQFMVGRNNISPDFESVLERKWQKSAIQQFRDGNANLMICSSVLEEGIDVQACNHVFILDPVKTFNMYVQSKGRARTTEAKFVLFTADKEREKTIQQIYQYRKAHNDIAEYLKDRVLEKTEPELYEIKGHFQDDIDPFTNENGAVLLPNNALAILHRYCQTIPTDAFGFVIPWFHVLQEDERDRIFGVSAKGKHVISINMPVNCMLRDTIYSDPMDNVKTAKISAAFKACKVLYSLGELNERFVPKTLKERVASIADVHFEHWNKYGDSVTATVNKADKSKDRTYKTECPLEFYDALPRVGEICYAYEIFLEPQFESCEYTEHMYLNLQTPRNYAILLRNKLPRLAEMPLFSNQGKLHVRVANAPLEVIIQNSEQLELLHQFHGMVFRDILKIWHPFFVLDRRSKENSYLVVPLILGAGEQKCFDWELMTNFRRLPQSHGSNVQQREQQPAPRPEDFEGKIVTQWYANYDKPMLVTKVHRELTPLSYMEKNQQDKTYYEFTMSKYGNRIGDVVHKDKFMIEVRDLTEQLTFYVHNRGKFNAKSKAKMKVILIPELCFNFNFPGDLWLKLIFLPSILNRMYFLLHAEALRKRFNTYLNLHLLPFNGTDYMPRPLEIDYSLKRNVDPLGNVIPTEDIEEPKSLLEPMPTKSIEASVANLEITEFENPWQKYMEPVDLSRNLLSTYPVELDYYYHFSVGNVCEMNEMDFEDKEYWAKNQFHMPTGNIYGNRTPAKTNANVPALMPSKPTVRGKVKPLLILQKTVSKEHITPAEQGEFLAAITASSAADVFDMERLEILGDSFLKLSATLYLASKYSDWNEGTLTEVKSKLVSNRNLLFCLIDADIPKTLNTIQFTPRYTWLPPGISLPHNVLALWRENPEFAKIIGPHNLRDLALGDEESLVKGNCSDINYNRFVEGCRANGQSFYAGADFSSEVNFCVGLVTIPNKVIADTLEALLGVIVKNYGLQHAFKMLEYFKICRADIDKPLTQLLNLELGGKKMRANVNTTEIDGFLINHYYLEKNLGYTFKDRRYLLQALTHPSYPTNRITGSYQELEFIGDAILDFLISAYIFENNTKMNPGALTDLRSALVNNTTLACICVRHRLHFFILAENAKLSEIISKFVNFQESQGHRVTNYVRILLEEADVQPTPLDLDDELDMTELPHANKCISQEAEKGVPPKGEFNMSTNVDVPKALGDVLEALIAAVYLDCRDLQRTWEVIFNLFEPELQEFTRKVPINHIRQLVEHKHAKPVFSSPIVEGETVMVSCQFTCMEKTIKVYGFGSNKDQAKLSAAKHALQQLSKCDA
T1 sequence (chain, as listed by the source |, chain 2 of 2): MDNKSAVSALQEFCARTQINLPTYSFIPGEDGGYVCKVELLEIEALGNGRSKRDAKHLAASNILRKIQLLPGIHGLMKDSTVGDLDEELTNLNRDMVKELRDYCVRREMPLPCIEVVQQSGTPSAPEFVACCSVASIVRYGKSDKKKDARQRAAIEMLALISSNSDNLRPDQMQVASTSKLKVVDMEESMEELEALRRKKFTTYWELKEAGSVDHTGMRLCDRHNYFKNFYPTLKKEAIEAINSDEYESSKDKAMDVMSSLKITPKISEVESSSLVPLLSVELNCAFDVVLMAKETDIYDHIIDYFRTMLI

[2] = target: T1, Dicer-2;R2D2; test: cryo-EM; two duplexes: one on R2D2 (well resolved), one on Dicer-2 helicase (poorly resolved); Crosslinking: 20 nM siRNA, 40 nM Dicer-2-R2D2, 30 min, >300 nm UV 60 s, buffer not given; structure: 30 mM Hepes-KOH pH 7.4, 100 mM potassium acetate, 2 mM magnesium acetate, 1 mM DTT, 0.02% glycerol, protein:siRNA 1:2 mixed at room temperature; settings: protein: recombinant;recombinant; tags: 8xHis (structure prep);3xFlag; copies: 1;1; 19-nt duplex region with U-U mismatch at g1:p19; 3' overhang 2 nt on both strands
[3] = target: T1, Dicer-2;R2D2; test: photocrosslinking; g* crosslinks to R2D2; Crosslinking: 20 nM siRNA, 40 nM Dicer-2-R2D2, 30 min, >300 nm UV 60 s, buffer not given; structure: 30 mM Hepes-KOH pH 7.4, 100 mM potassium acetate, 2 mM magnesium acetate, 1 mM DTT, 0.02% glycerol, protein:siRNA 1:2 mixed at room temperature; settings: protein: recombinant;recombinant; tags: 8xHis (structure prep);3xFlag; copies: 1;1; 3' overhang 2 nt on both strands
[4] = target: Dicer-2;R2D2 CTD Δα2 (Drosophila;Drosophila, UniProt A1ZAW0;Q9VLW8 1-1722;1-201+=GGGS+215-311, |internal_change); test: photocrosslinking; g* crosslink to R2D2 abolished, g* crosslink to Dicer-2 increased (opposite orientation); Crosslinking: 20 nM siRNA, 40 nM Dicer-2-R2D2, 30 min, >300 nm UV 60 s, buffer not given; structure: 30 mM Hepes-KOH pH 7.4, 100 mM potassium acetate, 2 mM magnesium acetate, 1 mM DTT, 0.02% glycerol, protein:siRNA 1:2 mixed at room temperature; settings: protein: recombinant;recombinant; tags: 8xHis (structure prep);3xFlag; copies: 1;1; 3' overhang 2 nt on both strands
Dicer-2;R2D2 CTD Δα2, sequence (A1ZAW0 whole entry, stated change not applied, chain 1 of 2): as the sequence (A1ZAW0 whole entry, chain 1 of 2) above
Dicer-2;R2D2 CTD Δα2, sequence (chain, as listed by the source | | mutant, chain 2 of 2): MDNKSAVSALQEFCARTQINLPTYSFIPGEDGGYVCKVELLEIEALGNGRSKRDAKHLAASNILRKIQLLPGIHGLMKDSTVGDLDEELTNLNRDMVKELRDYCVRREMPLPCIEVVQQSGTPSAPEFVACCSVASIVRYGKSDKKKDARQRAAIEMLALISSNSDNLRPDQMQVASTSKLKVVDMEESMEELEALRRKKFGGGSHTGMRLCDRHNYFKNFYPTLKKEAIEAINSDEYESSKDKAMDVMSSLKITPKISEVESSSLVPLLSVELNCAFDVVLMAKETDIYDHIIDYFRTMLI

[5] = target: Dicer-2;R2D2 K98A (Drosophila;Drosophila, UniProt A1ZAW0;Q9VLW8 1-1722;1-311, |K98A); test: photocrosslinking; g* crosslinking not affected by K98A; Crosslinking: 20 nM siRNA, 40 nM Dicer-2-R2D2, 30 min, >300 nm UV 60 s, buffer not given; structure: 30 mM Hepes-KOH pH 7.4, 100 mM potassium acetate, 2 mM magnesium acetate, 1 mM DTT, 0.02% glycerol, protein:siRNA 1:2 mixed at room temperature; settings: protein: recombinant;recombinant; tags: 8xHis (structure prep);3xFlag; copies: 1;1; 3' overhang 2 nt on both strands
Dicer-2;R2D2 K98A, sequence (A1ZAW0 whole entry, chain 1 of 2): as the sequence (A1ZAW0 whole entry, chain 1 of 2) above
Dicer-2;R2D2 K98A, sequence (chain, as listed by the source |K98A | K98A K98A, chain 2 of 2): as the sequence (chain, as listed by the source |, chain 2 of 2) above, with K98A counted along it

[6] = target: T1, Dicer-2;R2D2; test: photocrosslinking; crosslinks to R2D2, similar to 2-nt overhang; Crosslinking: 20 nM siRNA, 40 nM Dicer-2-R2D2, 30 min, >300 nm UV 60 s, buffer not given; structure: 30 mM Hepes-KOH pH 7.4, 100 mM potassium acetate, 2 mM magnesium acetate, 1 mM DTT, 0.02% glycerol, protein:siRNA 1:2 mixed at room temperature; settings: protein: recombinant;recombinant; tags: 8xHis (structure prep);3xFlag; copies: 1;1; U-U mismatch at nt 1 of strand 1

B1: g* siRNA, blunt stable end (siRNA-4/siRNA-5) (dsRNA)
RNA 1: UGAGGUAGUAGGUUGUAUAU
RNA 2: AUAUACAACCUACUACCUCUUU
modifications: 5-iodouracil at position 20 of strand 1 (written as U)
- binding result [1]: binds

B2: let-7 siRNA duplex (guide/passenger) (dsRNA)
RNA 1: UGAGGUAGUAGGUUGUAUAGU
RNA 2: UAUACAACCUACUACCUCUCU
modifications: 5'-phosphate (passenger p1)
- binding result [2]: binds

B3: g* siRNA, 2-nt overhang (siRNA-1/siRNA-2) (dsRNA)
RNA 1: UGAGGUAGUAGGUUGUAUAUU
RNA 2: UAUACAACCUACUACCUCUUU
modifications: 5-iodouracil at position 20 of strand 1 (written as U)
- binding result [3]: binds
- binding result [4]: binds
- binding result [5]: binds

B4: g* siRNA, 1-nt overhang (siRNA-4/siRNA-2) (dsRNA)
RNA 1: UGAGGUAGUAGGUUGUAUAU
RNA 2: UAUACAACCUACUACCUCUUU
modifications: 5-iodouracil at position 20 of strand 1 (written as U)
- binding result [6]: binds
